Legend:
[1] = molecular target: human fibrin (Sigma, F5386) (human) (UniProt P02671); assay: SEC-HPLC of the mixture after 1 h at 37 C; second peak (thrombin alone runs at 18.778)
[2] = molecular target: human fibrin (Sigma, F5386) (human) (UniProt P02671); assay: SEC-HPLC of the mixture after 1 h at 37 C; peak of the bound pair

human fibrin (Sigma, F5386) (human), sequence (P02671 36-629, chain 1 of 3): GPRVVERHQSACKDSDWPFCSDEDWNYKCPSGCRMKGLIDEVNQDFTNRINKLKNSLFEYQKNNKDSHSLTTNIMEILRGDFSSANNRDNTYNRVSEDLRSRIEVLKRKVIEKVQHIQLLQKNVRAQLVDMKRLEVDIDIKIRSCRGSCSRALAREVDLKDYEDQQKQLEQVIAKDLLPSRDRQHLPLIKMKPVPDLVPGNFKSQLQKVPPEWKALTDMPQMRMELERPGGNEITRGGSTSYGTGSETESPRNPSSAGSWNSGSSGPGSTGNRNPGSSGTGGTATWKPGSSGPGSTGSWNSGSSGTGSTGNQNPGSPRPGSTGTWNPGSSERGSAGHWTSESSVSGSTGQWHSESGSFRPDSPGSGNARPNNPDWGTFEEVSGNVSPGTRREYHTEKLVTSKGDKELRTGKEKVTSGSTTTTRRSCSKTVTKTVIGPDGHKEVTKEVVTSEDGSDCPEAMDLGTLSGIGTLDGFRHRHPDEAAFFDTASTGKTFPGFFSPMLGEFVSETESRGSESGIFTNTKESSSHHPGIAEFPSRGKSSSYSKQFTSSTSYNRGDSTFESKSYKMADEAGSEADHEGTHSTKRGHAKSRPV
human fibrin (Sigma, F5386) (human), sequence (P02675 45-491, chain 2 of 3, further chain): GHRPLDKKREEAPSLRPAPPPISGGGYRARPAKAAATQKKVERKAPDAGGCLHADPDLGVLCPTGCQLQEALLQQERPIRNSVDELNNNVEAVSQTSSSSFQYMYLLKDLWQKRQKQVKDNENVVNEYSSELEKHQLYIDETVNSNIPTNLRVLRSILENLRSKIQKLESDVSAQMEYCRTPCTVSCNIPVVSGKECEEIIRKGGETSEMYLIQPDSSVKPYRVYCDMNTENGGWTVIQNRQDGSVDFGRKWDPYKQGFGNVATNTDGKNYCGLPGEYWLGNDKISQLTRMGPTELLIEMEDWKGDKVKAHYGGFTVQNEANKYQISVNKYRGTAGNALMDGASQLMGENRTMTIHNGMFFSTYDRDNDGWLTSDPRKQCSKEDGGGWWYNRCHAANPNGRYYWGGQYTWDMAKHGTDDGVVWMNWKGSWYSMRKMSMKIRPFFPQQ
human fibrin (Sigma, F5386) (human), sequence (P02679 other isoform, or with tags, fused parts or gaps, chain 3 of 3, further chain): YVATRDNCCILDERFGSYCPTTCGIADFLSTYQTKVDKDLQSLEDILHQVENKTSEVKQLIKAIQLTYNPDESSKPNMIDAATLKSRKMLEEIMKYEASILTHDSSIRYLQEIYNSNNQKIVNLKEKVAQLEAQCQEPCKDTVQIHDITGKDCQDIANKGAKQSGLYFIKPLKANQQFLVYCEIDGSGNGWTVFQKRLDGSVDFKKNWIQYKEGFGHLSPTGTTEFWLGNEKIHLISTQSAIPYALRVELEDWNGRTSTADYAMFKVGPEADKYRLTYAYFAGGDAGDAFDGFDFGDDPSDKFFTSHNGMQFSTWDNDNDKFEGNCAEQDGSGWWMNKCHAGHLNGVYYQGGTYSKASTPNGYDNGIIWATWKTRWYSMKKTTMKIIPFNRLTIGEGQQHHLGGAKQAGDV

human thrombin (National Institute for the Control of Pharmaceutical and Biological Products, Lot No. 20021105) (from UniProt P00734 328-622) (enzyme)
retention time (min), peak 2 [1]: 18.6 min
retention time (min), peak 1 [2]: 12.6 min
